Patent US20240116985A1 (published 2024)
Starred links: 1 amine or outer side, 2 acyl side, 3 side chain; linkers in the order of their positions; H or OH if unused. Positions of bridges follow the written chain, without caps; N, C: chain ends. Non-standard residues stand in square brackets, D forms with d. Primed or numbered codes have the meaning given here. *: point of attachment. PyrS2(3) = (S)-3-amino-1-((pent-4-en-1-yloxy)carbonyl)pyrrolidine-3-carboxylic acid, stapling residue, C=CCCCOC(=O)N1CC[C@@](N[*:1])(C(=O)[*:2])C1; PyrS2″ = (S)-3-amino-1-((pent-4-en-1-yloxy)carbonyl)pyrrolidine-3-carboxylic acid (stapling residue), C=CCCCOC(=O)N1CC[C@@](N[*:1])(C(=O)[*:2])C1; B5(18) = 2,2-bis(4-pentenyl)glycine (2-amino-2-(pent-4-en-1-yl)hept-6-enoic acid), stitching residue, C=CCCCC(CCCC=C)(N[*:1])C(=O)[*:2]; B5(21) = 2-amino-2-(pent-4-en-1-yl)hept-6-enoic acid, bis(4-pentenyl)glycine (stitching residue), C=CCCCC(CCCC=C)(N[*:1])C(=O)[*:2]; TfeGA = (S)-2-amino-3-((carboxymethyl)(2,2,2-trifluoroethyl)amino)propanoic acid, O=C([C@H](CN(CC(=O)[*:3])CC(F)(F)F)N[*:1])[*:2]; PyrS2 = (S)-3-amino-1-((pent-4-en-1-yloxy)carbonyl)pyrrolidine-3-carboxylic acid, C=CCCCOC(=O)N1CC[C@@](N[*:1])(C(=O)[*:2])C1; TriAzDap = Dap whose side chain is a 1H-1,2,3-triazol-1-yl bearing the bracketed 4-substituent; B5 = 2-amino-2-(pent-4-en-1-yl)hept-6-enoic acid, C=CCCCC(CCCC=C)(N[*:1])C(=O)[*:2]; Phe(2-Cl) = N[C@@H](Cc1ccccc1Cl)C(=O)O; Bta = N[C@@H](Cc1csc2ccccc12)C(=O)O; αAllylPro = C=CC[C@@]1(C(=O)O)CCCN1; tBuAla = CC(C)(C)C[C@H](N)C(=O)O; 3Thi = N[C@@H](Cc1ccsc1)C(=O)O; hSer = N[C@@H](CCO)C(=O)O; MorphCH2 = C1CN(C*)CCO1

B1: I-1142 (peptide)
peptide: Ac-[αAllylPro]DF[B5]DDAAFS[PyrS2][Phe(2-Cl)][Bta][dT]-NH2
modifications: staple 1-4, 4-11
notes: Stapled (stitched) peptide by olefin metathesis; E/Z isomer(s) of the staples not assigned
B2: I-1141 (peptide)
peptide: Ac-[αAllylPro]DF[B5]DDAAFS[PyrS2][Phe(2-Cl)][Bta]T-NH2
modifications: staple 1-4, 4-11
notes: as for B1
B3: I-1145 (peptide)
peptide: Ac-[αAllylPro]DF[B5]DDAAFL[PyrS2][Phe(2-Cl)][Bta]T-NH2
modifications: staple 1-4, 4-11
notes: as for B1
B4: I-1144 (peptide)
peptide: Ac-[αAllylPro]DF[B5]DDAAFS[PyrS2][Phe(2-Cl)][Bta]L-NH2
modifications: staple 1-4, 4-11
notes: as for B1
B5: I-1143 (peptide)
peptide: Ac-[αAllylPro]DF[B5]DDAAFS[PyrS2][Phe(2-Cl)][Bta][hSer]-NH2
modifications: staple 1-4, 4-11
notes: as for B1
B6: I-1146 (peptide)
peptide: Ac-[αAllylPro]DF[B5]DDAAFL[PyrS2][Phe(2-Cl)][Bta][dT]-NH2
modifications: staple 1-4, 4-11
notes: as for B1
B7: I-1867 (peptide)
peptide: Ac-[αAllylPro]D[tBuAla][B5(18)]D[TfeGA]AAF[TriAzDap](MorphCH2)[PyrS2(3)][3Thi][Bta]Q-NH2
modifications: staple 1-4, 4-11; not fully specified
B8: I-1863 (peptide)
peptide: Ac-[αAllylPro]D[tBuAla][B5(18)]D[TfeGA]AAF[TriAzDap](CH2Ppz)[PyrS2(3)][3Thi][Bta]Q-NH2
modifications: staple 1-4, 4-11; not fully specified
B9: I-1864 (peptide)
peptide: Ac-[αAllylPro]D[tBuAla][B5(18)]D[TfeGA]AAF[TriAzDap](CH2Ppz)[PyrS2(3)][3Thi][Bta]Q-NH2
modifications: staple 1-4, 4-11; not fully specified
B10: I-1865 (peptide)
peptide: Ac-[αAllylPro]D[tBuAla][B5(18)]D[TfeGA]AAF[TriAzDap](MorphCH2)[PyrS2(3)][3Thi][Bta]Q-NH2
modifications: staple 1-4, 4-11; not fully specified
B11: I-1866 (peptide)
peptide: Ac-[αAllylPro]D[tBuAla][B5(18)]D[TfeGA]AAF[TriAzDap](MorphCH2)[PyrS2(3)][3Thi][Bta]Q-NH2
modifications: staple 1-4, 4-11; not fully specified
B12: I-1868 (peptide)
peptide: Ac-[αAllylPro]D[tBuAla][B5(18)]D[TfeGA]AAF[TriAzDap](SO2MorphCH2)[PyrS2(3)][3Thi][Bta]Q-NH2
modifications: staple 1-4, 4-11; not fully specified
B13: I-1414 (peptide)
peptide: Ac-[αAllylPro]DS[B5(21)]DDAAFL[PyrS2″][3Thi][Bta]L-NH2
modifications: staple 1-4, 4-11

What follows are binders tested against T1, full-length beta-Catenin (Uniprot ID P35222) (Homo sapiens (Human), UniProt P35222 2-781) (assay: fluorescence polarization competition, 5FAM-TCF4 10-53 probe on full-length beta-catenin).
T1 construct: also called bCat; B-Catenin
T1 sequence: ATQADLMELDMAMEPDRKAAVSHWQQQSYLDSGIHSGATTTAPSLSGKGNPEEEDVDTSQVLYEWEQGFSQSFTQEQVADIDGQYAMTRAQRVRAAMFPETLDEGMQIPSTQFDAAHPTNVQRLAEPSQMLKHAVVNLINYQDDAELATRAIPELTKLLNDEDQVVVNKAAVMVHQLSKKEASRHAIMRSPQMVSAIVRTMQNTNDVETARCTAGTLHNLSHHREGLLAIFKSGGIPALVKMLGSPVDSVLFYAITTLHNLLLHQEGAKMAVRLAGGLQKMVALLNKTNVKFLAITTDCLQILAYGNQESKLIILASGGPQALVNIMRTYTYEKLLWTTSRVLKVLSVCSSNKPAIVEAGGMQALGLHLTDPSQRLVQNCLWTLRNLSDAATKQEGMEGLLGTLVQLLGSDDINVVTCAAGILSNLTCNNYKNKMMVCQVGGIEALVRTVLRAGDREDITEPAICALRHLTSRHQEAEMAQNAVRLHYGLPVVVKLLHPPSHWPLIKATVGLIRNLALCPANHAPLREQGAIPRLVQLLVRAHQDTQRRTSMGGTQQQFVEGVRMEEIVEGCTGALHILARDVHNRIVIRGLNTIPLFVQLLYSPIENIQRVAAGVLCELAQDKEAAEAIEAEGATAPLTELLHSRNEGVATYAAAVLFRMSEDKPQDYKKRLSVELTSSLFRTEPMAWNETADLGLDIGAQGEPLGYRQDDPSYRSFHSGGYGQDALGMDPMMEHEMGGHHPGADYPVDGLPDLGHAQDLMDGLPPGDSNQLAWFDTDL
Experimental: The plate was incubated protected from light for 60 minutes at 20° C. prior to read. Reads were performed on a CLARIOstar plate reader (BMG Labtech) in duplicate, and data were fitted to a 1:1 binding model with hill slope using an in-house script. All provided concentrations are final concentrations.

Row | Binder | EC50 [nM]
1 | B1 | 22
2 | B2 | 13
3 | B3 | 18
4 | B4 | 28
5 | B5 | 12
6 | B6 | 33

What follows are binders tested against T2, B-cat-Halo (beta-catenin HaloTag NanoBRET construct expressed in HEK293 cells) (UniProt P35222 1-781) (assay: cell-based or functional assay).
T2 sequence (looked up): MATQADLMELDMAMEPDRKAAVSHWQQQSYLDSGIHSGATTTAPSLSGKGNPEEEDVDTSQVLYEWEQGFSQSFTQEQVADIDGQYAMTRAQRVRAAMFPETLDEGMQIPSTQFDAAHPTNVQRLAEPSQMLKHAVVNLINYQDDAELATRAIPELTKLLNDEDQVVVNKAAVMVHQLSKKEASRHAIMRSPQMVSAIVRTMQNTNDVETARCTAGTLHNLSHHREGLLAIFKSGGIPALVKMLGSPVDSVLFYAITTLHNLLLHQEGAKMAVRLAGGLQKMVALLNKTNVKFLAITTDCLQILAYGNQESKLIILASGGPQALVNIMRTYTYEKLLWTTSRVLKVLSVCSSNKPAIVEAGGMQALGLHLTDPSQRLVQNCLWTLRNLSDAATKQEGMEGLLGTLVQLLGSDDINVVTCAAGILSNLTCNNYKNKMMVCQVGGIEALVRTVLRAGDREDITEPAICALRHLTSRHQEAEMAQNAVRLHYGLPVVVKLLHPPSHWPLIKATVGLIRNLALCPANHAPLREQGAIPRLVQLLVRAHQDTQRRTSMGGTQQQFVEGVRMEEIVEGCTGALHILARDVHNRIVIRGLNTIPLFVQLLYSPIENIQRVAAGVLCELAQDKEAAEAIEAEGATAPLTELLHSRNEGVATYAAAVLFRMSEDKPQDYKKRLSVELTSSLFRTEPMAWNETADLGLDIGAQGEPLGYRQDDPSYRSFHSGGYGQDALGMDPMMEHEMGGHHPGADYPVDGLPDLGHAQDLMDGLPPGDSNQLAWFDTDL

Row | Binder | NanoBRET Abs IC50 [nM]
7 | B7 | 16400
8 | B8 | 37400
9 | B9 | > 20000
10 | B10 | > 20000
11 | B11 | > 20000
12 | B12 | 39600

These binders were tested against T3, Bcat-Halo (UniProt P35222 1-781) (assay: cell-based or functional assay).
T3 sequence (looked up): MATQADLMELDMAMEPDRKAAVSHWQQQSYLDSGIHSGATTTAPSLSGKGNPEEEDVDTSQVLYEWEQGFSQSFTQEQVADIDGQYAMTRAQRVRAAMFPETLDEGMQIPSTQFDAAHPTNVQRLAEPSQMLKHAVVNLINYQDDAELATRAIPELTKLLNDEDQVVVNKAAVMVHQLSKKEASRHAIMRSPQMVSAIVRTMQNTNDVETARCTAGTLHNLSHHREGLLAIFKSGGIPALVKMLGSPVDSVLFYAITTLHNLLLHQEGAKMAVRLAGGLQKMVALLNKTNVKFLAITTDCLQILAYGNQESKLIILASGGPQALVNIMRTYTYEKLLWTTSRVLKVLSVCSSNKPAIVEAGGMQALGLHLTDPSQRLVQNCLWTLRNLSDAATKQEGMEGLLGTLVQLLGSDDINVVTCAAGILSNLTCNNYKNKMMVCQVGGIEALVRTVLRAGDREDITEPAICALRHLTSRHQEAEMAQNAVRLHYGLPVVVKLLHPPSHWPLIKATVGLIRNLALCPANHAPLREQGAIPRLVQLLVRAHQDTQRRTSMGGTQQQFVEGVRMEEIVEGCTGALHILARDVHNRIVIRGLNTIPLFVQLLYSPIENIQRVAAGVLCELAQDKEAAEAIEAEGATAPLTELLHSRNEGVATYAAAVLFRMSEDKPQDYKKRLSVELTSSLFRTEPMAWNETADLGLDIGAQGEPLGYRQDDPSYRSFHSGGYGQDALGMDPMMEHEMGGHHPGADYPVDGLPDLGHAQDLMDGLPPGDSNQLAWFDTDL

Row | Binder | NanoBRET Abs IC50 [nM]
13 | B13 | > 20000
